System: H2B-S33
Assay: In vitro kinase assay (γ32P-ATP, SDS-PAGE, autoradiography, scintillation counting)
Format: biochemical, Drosophila
Details: for Turnover values for phosphorylation of H2B-S33: 3 μg enzyme
Description: Kinase reactions were programmed with 1 μg RAP74, 1 μg recombinant histone, 2 μg polynucleosomes, 2 μg histone octamers, or 300 ng histone peptide, and contained 400 ng endogenous TFIID or 250 ng recombinant TAF1 derivatives and 0.25 μCi γ^32P-ATP. Reactions were performed in 20 μl kinase buffer (25 mM Hepes (pH 7.6), 10% glycerol, and 400 mM NaCl) for 25 min at 25° C. Reaction products were analyzed by SDS-PAGE using 8%—(for recombinant proteins), 15%—(for histones), or 18% (for peptides) gels. After electrophoresis, gels were dried and exposed to X-ray film.
To quantify kinase reactions, reactions products were separated by SDS-PAGE and detected by coomassie blue staining. Radiolabeled H2B was detected by autoradiography, excised from the gel, and analyzed by scintillation counting.
To measure the kinase activity of TFIID, TAF1, CTK, and mutant CTK-derivatives, reaction products of in vitro kinase assays were separated by SDS-PAGE and stained with coomassie blue. Radiolabeled H2B, H2BT and controls were excised from the gel and incorporation of radioactivity was determined by scintillation counting. Turnover values for phosphorylation of H2B-S33 were determined by measuring incorporation of radiolabeled phosphate groups into H2B in the presence of 3 μg TAF1, TFIID, or CTK-derivatives and 3 μg H2B or 12 μg nucleosomes. The turnover values were: TFIID (nucleosomes: 3.3/sec; H2B: 2.6/sec); TAF1: (nucleosomes: 2.5/sec; H2B: 2.5/sec); CTK: (nucleosomes: 2.6/sec; H2B: 4.4/sec).

Substance	Turnover values for phosphorylation of H2B-S33 (substrate 3 μg H2B) [s⁻¹]	Turnover values for phosphorylation of H2B-S33 (substrate 12 μg nucleosomes) [s⁻¹]	H2B phosphorylation in vitro (qualitative) (autoradiography)	kinase activity, % of the activity determined for TFIID, TAF1 and CTK (radiolabeled H2B, scintillation counting)
TAF1: subunit of TFIID that has kinase activity; recombinant Flag-tagged Drosophila protein	2.5	2.5		
TAF1ΔCTK: TAF1 truncated by stop codon behind amino acid 1728, deleting the CTK downstream of the DBD			does not phosphorylate H2B in vitro	less than 0.1%

Source: patent US20060115482A1, “Modifications of histone proteins as indicators of cell proliferation and differentiation” (The Regents of the University of California, priority 2004, published 2006)
